Like-named read-outs stand apart in the source and are kept apart here. Blank lines part the entries; values can stand above or below the molecule they belong to.
What was measured:
[1] = biological target: truncated transmembrane tissue factor comprising residues 1-243, relipidated (human) (UniProt P13726); assay: cell-based or functional assay
[2] = biological target: soluble tissue factor composed of the extracellular domain residues 1-219 of hTF (human) (UniProt P13726); assay: TF binding assay (ELISA on coated human soluble TF), ratio to chimeric F(ab) standard
[3] = biological target: relipidated human tissue factor (Innovin) (human) (UniProt P13726); assay: cell-based or functional assay
[4] = biological target: tissue factor on human J82 cells (human) (UniProt P13726); assay: cell-based or functional assay
[5] = biological target: truncated transmembrane tissue factor comprising residues 1-243, relipidated (human) (UniProt P13726); assay: cell-based or functional assay; remark: listed apart in the source

Chain of soluble tissue factor composed of the extracellular domain residues 1-219 of hTF (human) (P13726 33-251): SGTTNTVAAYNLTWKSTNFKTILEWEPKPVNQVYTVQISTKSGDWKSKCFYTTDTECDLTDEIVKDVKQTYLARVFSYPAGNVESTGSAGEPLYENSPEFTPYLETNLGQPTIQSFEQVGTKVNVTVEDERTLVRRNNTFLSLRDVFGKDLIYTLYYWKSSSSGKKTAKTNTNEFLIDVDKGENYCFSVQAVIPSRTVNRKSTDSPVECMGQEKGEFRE
Chain of truncated transmembrane tissue factor comprising residues 1-243, relipidated (human) (P13726 33-275): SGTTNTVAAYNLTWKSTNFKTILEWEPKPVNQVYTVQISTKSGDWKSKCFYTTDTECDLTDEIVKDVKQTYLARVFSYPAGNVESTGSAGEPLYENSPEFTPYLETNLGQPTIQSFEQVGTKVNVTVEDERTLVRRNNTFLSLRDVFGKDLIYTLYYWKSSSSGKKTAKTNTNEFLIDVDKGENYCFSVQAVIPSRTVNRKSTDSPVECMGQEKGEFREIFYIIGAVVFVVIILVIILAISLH
Chain of tissue factor on human J82 cells (human) (P13726 33-295): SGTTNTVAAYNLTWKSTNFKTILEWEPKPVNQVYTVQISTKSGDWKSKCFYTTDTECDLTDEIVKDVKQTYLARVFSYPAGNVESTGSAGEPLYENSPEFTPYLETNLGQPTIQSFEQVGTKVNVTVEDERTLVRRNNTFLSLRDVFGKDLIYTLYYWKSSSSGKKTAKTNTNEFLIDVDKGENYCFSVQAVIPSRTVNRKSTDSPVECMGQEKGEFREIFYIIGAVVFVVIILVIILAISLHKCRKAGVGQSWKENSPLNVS
Chain of relipidated human tissue factor (Innovin) (human) (P13726 33-295 limits assumed): as the sequence (P13726 33-295) above

Molecule: chimeric D3 F(ab) with CDR-H2 Asp H65 changed to Gly (Fab)
fold reduction in binding against chimeric D3 F(ab) [2]: 14.2 fold

Molecule: chimeric D3 F(ab) with CDR-H3 Thr96-Ala97-Ala98 changed to TF8 Asn96-Ser97-Tyr98 (Fab)
fold reduction in binding against chimeric D3 F(ab) [2]: 20.3 fold

Results, then the molecule that gave them:

concentration inhibiting the rate of FX activation in human plasma by 50% [1]: 150 µg/mL
Molecule: HTF1 antibody

antibody concentration prolonging the clotting time (PT) by 1.5-fold [3]: 27 µg/mL
IC50 of FPA generation, human ex-vivo blood flow system with J82 cells [4]: 50 µg/mL
concentration inhibiting the rate of FX activation in human plasma by 50% [5]: 15.5 µg/mL
B1: murine anti-TF antibody 5G6 (antibody, V domains shown)
VH: EVLLQQSGPELVKPGASVKIPCKASGYTFTEYNMDWVKQSHGKSLEWIGDINPNNGNTIYNQKFKGKATLTVDKSSTTAYLELRSLTSEDTAVYFCARDHDYYFDFWGQGTTLTVSS
VL: DIQMTQTPASQSASLGESVTITCLASQTIDTWLAWYQQKPGKSPQLLIYAATSLADGVPSRFSGSGSGTKFSFKISSLQAEDFVSYYCQQPYSSPYTFGGGTKLELKR
modifications: murine constant regions

Reference: patent US20030124117A1
